Test results taken from patent US20250059288A1 (GRANITE BIO, published 2025).

Tests used:
[1] = molecular target: T1, Human CCR2b with ECL3 domain of CCR2b of rhesus monkey (human, with rhesus monkey ECL3 domain, UniProt O18793 1-360 (rhesus entry)); assay: flow cytometry on stably transfected CHO cells, 10 µg/ml
T1 construct: On stably transfected CHO cells
T1 chain: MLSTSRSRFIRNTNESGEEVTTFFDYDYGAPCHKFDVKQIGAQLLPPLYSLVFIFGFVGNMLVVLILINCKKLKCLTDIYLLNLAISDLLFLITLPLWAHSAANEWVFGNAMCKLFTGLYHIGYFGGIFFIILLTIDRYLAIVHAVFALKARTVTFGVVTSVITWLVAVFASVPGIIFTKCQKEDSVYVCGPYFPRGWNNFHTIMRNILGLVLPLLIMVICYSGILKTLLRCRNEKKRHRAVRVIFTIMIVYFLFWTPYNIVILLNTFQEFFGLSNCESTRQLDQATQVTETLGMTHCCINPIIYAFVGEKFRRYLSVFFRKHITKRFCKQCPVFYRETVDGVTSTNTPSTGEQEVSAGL
Experimental: (§1) To further investigate the specificity of the antibodies of the present invention, binding of Y4T3 to various CCR2 constructs was tested. […] Untransfected CHO cells (empty) were also analyzed. Antibodies were tested at concentration of 10 μg/ml and incubated with the cells for 30 min on ice. After 3 washing steps with cold PBS, the bound antibodies were detected with a PE-labeled polyclonal rabbit anti-mouse immunoglobulins antibody (R0439 from Agilent Dako, diluted 1:200 in PBS) for 30 min on ice. After two washing steps with PBS, cells were analyzed by flow cytometry. Mean fluorescence intensity for PE was determined on cells and is depicted.

[2] = molecular target: T2, Human CCR2b with the N-terminus of CCR2b of rhesus monkey (human, with rhesus monkey N-terminus, UniProt O18793 1-360 (rhesus entry)); assay: as above
T2 construct: On stably transfected CHO cells
T2 chain: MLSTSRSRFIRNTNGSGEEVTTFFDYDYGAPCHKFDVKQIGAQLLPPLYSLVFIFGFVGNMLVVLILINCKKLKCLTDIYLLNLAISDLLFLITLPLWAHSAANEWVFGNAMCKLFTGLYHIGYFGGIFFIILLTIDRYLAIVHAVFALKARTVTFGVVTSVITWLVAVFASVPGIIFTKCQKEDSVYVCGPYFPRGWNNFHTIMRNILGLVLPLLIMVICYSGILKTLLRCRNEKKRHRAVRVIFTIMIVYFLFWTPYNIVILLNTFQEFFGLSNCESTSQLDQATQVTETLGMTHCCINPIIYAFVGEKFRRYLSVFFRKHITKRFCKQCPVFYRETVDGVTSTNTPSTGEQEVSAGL
Experimental: as §1

Human CCR2b (hCCR2b) [3] = molecular target: T3, Human CCR2b (hCCR2b) (human, UniProt P41597-2 1-360); assay: flow cytometry on human whole blood, classical monocytes, median fluorescence intensity
T3 construct: also called CD192; MCP-1 receptor
T3 sequence: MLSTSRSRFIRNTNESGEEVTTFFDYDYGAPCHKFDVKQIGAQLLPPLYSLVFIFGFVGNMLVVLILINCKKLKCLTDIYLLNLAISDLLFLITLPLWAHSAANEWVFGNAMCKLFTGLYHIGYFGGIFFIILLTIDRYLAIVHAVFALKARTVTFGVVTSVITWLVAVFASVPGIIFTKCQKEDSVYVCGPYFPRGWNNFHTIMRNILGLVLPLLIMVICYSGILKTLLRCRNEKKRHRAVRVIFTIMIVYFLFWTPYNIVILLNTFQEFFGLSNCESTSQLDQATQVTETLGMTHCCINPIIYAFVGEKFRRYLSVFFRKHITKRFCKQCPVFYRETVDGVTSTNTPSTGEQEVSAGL
Experimental: Human heparinized whole blood was incubated with the indicated antibodies for 45 min on ice, washed three times with cold PBS, then stained with secondary PE-labeled rabbit-anti-mouse Ig (R0439, DakoCytomation 1:200) for 30 min on ice, washed 3 times with cold PBS. The 10% mouse serum was added for 10 min and after that directly labeled antibodies against CD3-APCCy7, CD8-PE-Cy7, CD4-V500, CD123-PerCP, CD304-APC, CD116-FITC, CD16-PB. After washing and lysis of red blood cells with BD Lysing solution cells were acquired on a FACSCanto-II and analyzed by FACS-DIVA software. Classical monocytes were identified by light scatter properties, expression of CD116 and absence of CD16 and CD123. Median fluorescence intensity for PE is depicted on classical monocytes.

Human CCR5 [4] = molecular target: T4, Human CCR5 (human, UniProt P51681 1-352); assay: summary table; binding to human CCR5
T4 construct: On transfected CHO cells; also called CD195
T4 sequence (P51681 whole entry): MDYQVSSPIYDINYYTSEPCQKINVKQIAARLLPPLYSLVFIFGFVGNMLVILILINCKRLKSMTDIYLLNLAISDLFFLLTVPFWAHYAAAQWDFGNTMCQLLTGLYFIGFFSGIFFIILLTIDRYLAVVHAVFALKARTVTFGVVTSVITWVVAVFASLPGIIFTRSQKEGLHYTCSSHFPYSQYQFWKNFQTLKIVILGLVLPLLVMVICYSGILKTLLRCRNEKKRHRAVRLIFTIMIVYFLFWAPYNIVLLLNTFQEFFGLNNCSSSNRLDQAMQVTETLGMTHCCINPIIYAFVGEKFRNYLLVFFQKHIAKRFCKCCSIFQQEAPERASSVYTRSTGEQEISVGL

[5] = molecular target: T5, Marmoset CCR2b (Marmo-CCR2b) (marmoset monkey (Callithrix jacchus)); assay: summary table; affinity to CCR2 expressed on marmoset PBMCs
T5 construct: On transfected CHO cells and, as native CCR2, on marmoset monocytes (splenocytes, PBMCs)
T5 chain: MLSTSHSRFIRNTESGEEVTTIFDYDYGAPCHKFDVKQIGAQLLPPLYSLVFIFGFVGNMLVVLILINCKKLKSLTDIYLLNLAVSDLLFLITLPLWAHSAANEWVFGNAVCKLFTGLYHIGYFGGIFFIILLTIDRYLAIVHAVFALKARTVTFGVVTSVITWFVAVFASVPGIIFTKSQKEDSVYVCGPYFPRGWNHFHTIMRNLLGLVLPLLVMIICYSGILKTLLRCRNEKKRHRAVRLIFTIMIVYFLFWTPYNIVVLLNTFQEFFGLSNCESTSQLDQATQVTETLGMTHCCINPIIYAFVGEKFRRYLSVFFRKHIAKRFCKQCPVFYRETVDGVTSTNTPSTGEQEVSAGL

[6] = molecular target: T6, Human CCR2b with the ECL2 domain of CCR2b of rhesus monkey (ECL2-hCCR2b) (human, with rhesus monkey ECL2 domain, UniProt O18793 1-360 (rhesus entry)); assay: flow cytometry on stably transfected CHO cells
T6 construct: On stably transfected CHO cells
T6 chain: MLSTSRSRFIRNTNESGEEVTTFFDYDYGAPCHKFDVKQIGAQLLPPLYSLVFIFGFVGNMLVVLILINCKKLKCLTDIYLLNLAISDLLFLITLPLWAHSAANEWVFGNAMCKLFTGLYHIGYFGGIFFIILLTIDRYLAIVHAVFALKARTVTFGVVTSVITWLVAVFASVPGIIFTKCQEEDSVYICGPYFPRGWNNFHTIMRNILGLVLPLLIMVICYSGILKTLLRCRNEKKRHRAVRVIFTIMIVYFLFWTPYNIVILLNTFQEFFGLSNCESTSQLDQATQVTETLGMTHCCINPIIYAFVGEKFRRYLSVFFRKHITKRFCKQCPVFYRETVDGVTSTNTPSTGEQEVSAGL
Experimental: as §1

Rhesus CCR2b (rh-CCR2B) = molecular target: T7, Rhesus CCR2b (rh-CCR2B) (rhesus monkey (Macaca mulatta), UniProt O18793 1-360); assay: flow cytometry on stably transfected CHO cells
T7 construct: On stably transfected CHO cells
T7 sequence: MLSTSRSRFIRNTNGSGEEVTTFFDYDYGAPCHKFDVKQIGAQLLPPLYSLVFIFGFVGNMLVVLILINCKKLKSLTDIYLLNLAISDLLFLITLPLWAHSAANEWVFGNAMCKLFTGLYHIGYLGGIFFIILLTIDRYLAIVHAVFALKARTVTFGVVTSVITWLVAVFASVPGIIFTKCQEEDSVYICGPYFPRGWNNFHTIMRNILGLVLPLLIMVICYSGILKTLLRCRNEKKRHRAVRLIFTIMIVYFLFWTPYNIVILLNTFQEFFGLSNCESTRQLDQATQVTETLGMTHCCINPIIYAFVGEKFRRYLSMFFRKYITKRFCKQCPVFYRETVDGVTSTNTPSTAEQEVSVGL
Experimental: as §1

Human CCR5 [7] = molecular target: T4, Human CCR5; assay: flow cytometry on CHO cells transfected with human CCR5
Mouse CCR2 = molecular target: T8, Mouse CCR2 (mouse, UniProt P51683 1-373); assay: flow cytometry on mouse CCR2 CHO cells, various concentrations
T8 construct: whole, on cells
T8 sequence (P51683 whole entry): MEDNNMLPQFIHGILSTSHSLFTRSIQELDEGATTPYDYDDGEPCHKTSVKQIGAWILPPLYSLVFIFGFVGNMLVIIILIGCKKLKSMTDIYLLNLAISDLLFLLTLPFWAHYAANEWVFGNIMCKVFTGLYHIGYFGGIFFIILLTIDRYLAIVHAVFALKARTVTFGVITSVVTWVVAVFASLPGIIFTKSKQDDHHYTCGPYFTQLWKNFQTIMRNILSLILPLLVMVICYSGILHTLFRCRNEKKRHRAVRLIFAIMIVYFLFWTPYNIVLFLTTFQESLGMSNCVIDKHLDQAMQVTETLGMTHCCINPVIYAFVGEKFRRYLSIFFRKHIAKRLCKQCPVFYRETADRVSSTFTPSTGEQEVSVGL
Experimental: Mouse CCR2 CHO cells and human CCR2 CHO cells were incubated for 45 min on ice with PBS or various concentrations of hY4T3. After 3 washing steps with cold PBS, cells were stained PE-F(ab)2 goat anti human IgG (1:300; Jackson, Cat.No.109-116-098) for 30 min on ice. After 3 washing steps with cold PBS cells were analyzed by FACS to measure mean fluorescence intensity (MFI).

Human CCR2b (hCCR2b) [8] = molecular target: T3, Human CCR2b (hCCR2b); assay: flow cytometry on human whole blood, 0.5 µg/ml
From the text: Y4T3 was humanized by CDR-grafting resulting in hY4T3. Databases of Human IgG sequences and human germline sequences were searched for comparison to the murine VH domain and VL domain using BLAST search algorithms, and candidate human variable domains selected from the top 200 BLAST results. These were reduced to five candidates for VH (HC1-HC5 or H1-H5) and five candidates for VL (LC1-LC5 or L1-L5) based on a combination of framework homology, maintaining key framework residues and canonical loop structure. In total 25 humanized variants of Y4T3 were generated. The humanized Y4T3 variants were tested for binding to human CCR2+ monocytes in whole human blood by flow cytometry. 60 μl of lithium-heparin anticoagulated human whole blood was incubated for 45 min on ice with the indicated antibodies at 0.5 μg/ml in PBS. After three washing steps with cold PBS the bound antibodies were detected with PE-F(ab)2 goat anti human IgG (Jackson ImmunoResearch, 109-116-098) together with directly labeled antibodies against CD8, CD4, CD123 and CD116. After 2 washing steps with 0.9% NaCl red blood cells were lysed with Lysing Solution (BDBioscience) for 10 min in the dark. Cells were washed once with PBS and analyzed by flow cytometry to identify CCR2 expression on various cell types including monocytes. Mean fluorescence intensity (MFI) for PE was determined for these cell populations and is depicted.

[9] = molecular target: T5, Marmoset CCR2b (Marmo-CCR2b); assay: flow cytometry on marmoset splenocytes (legend of FIG. 8)

B1: Antibody Y4T3 (antibody, V domains shown)
VH: QVHLQQSGTELARPGASIKLSCKTSGSTFTRYTMHWIKQRPGQGLEWIGFIVPSTGYTKYNQKFKDKATLTADKSSSTAYMHLNSLTSEDSALYYCARNKEVDYGASWGQGTLVTVSA
VL: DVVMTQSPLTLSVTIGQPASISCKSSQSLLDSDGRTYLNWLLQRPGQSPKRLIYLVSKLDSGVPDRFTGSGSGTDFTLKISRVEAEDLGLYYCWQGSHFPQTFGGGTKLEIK
notes: also called Y3T3 [sic]; Y4T4 [sic]
binding result [1]: binds | binding result [2]: binds | fold higher affinity than the tested prior art antibodies (DOC2, 1D9, Clone 48607) (Human CCR2b (hCCR2b) [3]): > 5 fold | binding result (Human CCR5 [4]): no binding | binding result [5]: binds | binding result [6]: no binding (tested: 10 µg/ml) | binding result (Rhesus CCR2b (rh-CCR2B)): no binding (tested: 10 µg/ml)

B2: human IgG1 chimeric variant of Y4T3 (Y4T3-chim) (antibody, V domains shown)
VH: QVHLQQSGTELARPGASIKLSCKTSGSTFTRYTMHWIKQRPGQGLEWIGFIVPSTGYTKYNQKFKDKATLTADKSSSTAYMHLNSLTSEDSALYYCARNKEVDYGASWGQGTLVTVSA
VL: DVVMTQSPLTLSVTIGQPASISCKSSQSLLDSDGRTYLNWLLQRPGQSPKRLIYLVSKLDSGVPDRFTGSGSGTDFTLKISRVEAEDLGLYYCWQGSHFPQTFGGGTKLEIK
notes: also called H0L0
binding result (Human CCR5 [7]): no binding (tested: 10 µg/ml and 1 µg/ml)

B3: hY4T3 (humanized Y4T3, variant H3L1) (antibody, V domains shown)
VH: QVQLVQSGAEVKKPGASVKVSCKASGSTFTRYTMHWVRQAPGQRLEWIGFIVPSTGYTKYNQKFKDRVTITRDTSASTAYMELSSLRSEDTAVYYCARNKEVDYGASWGQGTLVTVSS
VL: DVVMTQSPLSLPVTLGQPASISCKSSQSLLDSDGRTYLNWFQQRPGQSPRRLIYLVSKLDSGVPDRFSGSGSGTDFTLKITRVEAEDVGVYYCWQGSHFPQTFGQGTKVEIK
notes: detected with anti-human IgG; Human IgG1 is named as the preferred class
binding result (Human CCR5 [7]): no binding (tested: 10 µg/ml and 1 µg/ml) | binding result (Mouse CCR2): no binding | binding result (Human CCR2b (hCCR2b) [8]): binds | binding result [9]: binds

B4: DOC-2 antibody (antibody, V domains shown)
VH: EVQLVESGGGLVKPGGSLKLSCVASGFTLSNYAMSWVRQSPEKRLEWVAEVSSSGIYIYYSDTVTGRFSISRDNAKNTLYLEMSSLRSEDTAIYYCARDRYAYAMDYWGHGTSVIVSS
VL: DIVMTQSPSSLAISVGQRVTLSCKSSQSLLNSYNQKNSLAWYQQKPGQSPKLLVYFASTRESGVPDRFIGSGSGTYFTLTITSVQAGDLADYFCQQHYSNPRTFGGGTRLEIK
notes: Prior art anti-CCR2 antibody; detected with anti-mouse Ig
binding result (Human CCR2b (hCCR2b) [3]): binds
